Laboratory results from PMC2693498, “The triple combination of tenofovir, emtricitabine and efavirenz shows synergistic anti-HIV-1 activity in vitro: a mechanism of action study”.

Key:
[1] = biological target: T1, HIV-1 reverse transcriptase p66/p51, wild-type (HIV-1, UniProt P04585;P04585 588-1147;588-1027); test: EMSA; EFV titrated (ligand Kd); Bmax 11.2%; DEC binding buffer not in the material; 6% non-denaturing PAGE; DEC defined as resistant to excess competitor template; primer/template annealed 1:1.3 in 50 mM; conditions: protein: recombinant; tags: N-terminal 6-His; copies: 1;1; label: 5'-32P primer; template 5' overhang 24 nt, other end blunt
[2] = biological target: T1, HIV-1 reverse transcriptase p66/p51, …; test: EMSA; dCTP titrated (ligand Kd); Bmax 55.8%; DEC binding buffer not in the material; 6% non-denaturing PAGE; DEC defined as resistant to excess competitor template; primer/template annealed 1:1.3 in 50 mM; conditions: protein: recombinant; tags: N-terminal 6-His; copies: 1;1; label: 5'-32P primer; template 5' overhang 24 nt, other end blunt
[3] = biological target: T1, HIV-1 reverse transcriptase p66/p51, …; test: EMSA; FTC-TP titrated (ligand Kd); Bmax 60.2%; DEC binding buffer not in the material; 6% non-denaturing PAGE; DEC defined as resistant to excess competitor template; primer/template annealed 1:1.3 in 50 mM; conditions: protein: recombinant; tags: N-terminal 6-His; copies: 1;1; label: 5'-32P primer; template 5' overhang 24 nt, other end blunt
[4] = biological target: T1, HIV-1 reverse transcriptase p66/p51, …; test: EMSA; EFV titrated (ligand Kd); Bmax 5.53%; DEC binding buffer not in the material; 6% non-denaturing PAGE; DEC defined as resistant to excess competitor template; primer/template annealed 1:1.3 in 50 mM; conditions: protein: recombinant; tags: N-terminal 6-His; copies: 1;1; label: 5'-32P primer; template overhangs: 5' 8 nt, 3' 8 nt
[5] = biological target: T1, HIV-1 reverse transcriptase p66/p51, …; test: EMSA; EFV titrated (ligand Kd); Bmax 14.9%; DEC binding buffer not in the material; 6% non-denaturing PAGE; DEC defined as resistant to excess competitor template; primer/template annealed 1:1.3 in 50 mM; conditions: protein: recombinant; tags: N-terminal 6-His; copies: 1;1; label: 5'-32P primer; template overhangs: 5' 8 nt, 3' 8 nt
[6] = biological target: T1, HIV-1 reverse transcriptase p66/p51, …; test: EMSA; dATP titrated (ligand Kd); Bmax 38.0%; DEC binding buffer not in the material; 6% non-denaturing PAGE; DEC defined as resistant to excess competitor template; primer/template annealed 1:1.3 in 50 mM; conditions: protein: recombinant; tags: N-terminal 6-His; copies: 1;1; label: 5'-32P primer; template overhangs: 5' 8 nt, 3' 8 nt
[7] = biological target: T1, HIV-1 reverse transcriptase p66/p51, …; test: EMSA; TFV-DP titrated (ligand Kd); Bmax 15.3%; DEC binding buffer not in the material; 6% non-denaturing PAGE; DEC defined as resistant to excess competitor template; primer/template annealed 1:1.3 in 50 mM; conditions: protein: recombinant; tags: N-terminal 6-His; copies: 1;1; label: 5'-32P primer; template overhangs: 5' 8 nt, 3' 8 nt
[8] = biological target: T1, HIV-1 reverse transcriptase p66/p51, …; test: EMSA; EFV titrated (ligand Kd); Bmax 3.96%; DEC binding buffer not in the material; 6% non-denaturing PAGE; DEC defined as resistant to excess competitor template; primer/template annealed 1:1.3 in 50 mM; conditions: protein: recombinant; tags: N-terminal 6-His; copies: 1;1; label: 5'-32P primer; template 5' overhang 23 nt, other end blunt
[9] = biological target: T1, HIV-1 reverse transcriptase p66/p51, …; test: EMSA; dATP titrated (ligand Kd); Bmax 60%; DEC binding buffer not in the material; 6% non-denaturing PAGE; DEC defined as resistant to excess competitor template; primer/template annealed 1:1.3 in 50 mM; conditions: protein: recombinant; tags: N-terminal 6-His; copies: 1;1; label: 5'-32P primer; template 5' overhang 23 nt, other end blunt
[10] = biological target: T1, HIV-1 reverse transcriptase p66/p51, …; test: EMSA; EFV titrated (ligand Kd); Bmax 10.6%; DEC binding buffer not in the material; 6% non-denaturing PAGE; DEC defined as resistant to excess competitor template; primer/template annealed 1:1.3 in 50 mM; conditions: protein: recombinant; tags: N-terminal 6-His; copies: 1;1; label: 5'-32P primer; template 5' overhang 23 nt, other end blunt
[11] = biological target: T1, HIV-1 reverse transcriptase p66/p51, …; test: EMSA; TFV-DP titrated (ligand Kd); Bmax 55%; DEC binding buffer not in the material; 6% non-denaturing PAGE; DEC defined as resistant to excess competitor template; primer/template annealed 1:1.3 in 50 mM; conditions: protein: recombinant; tags: N-terminal 6-His; copies: 1;1; label: 5'-32P primer; template 5' overhang 23 nt, other end blunt
[12] = biological target: T1, HIV-1 reverse transcriptase p66/p51, …; test: EMSA; EFV titrated (ligand Kd); Bmax 44.4%; DEC binding buffer not in the material; 6% non-denaturing PAGE; DEC defined as resistant to excess competitor template; primer/template annealed 1:1.3 in 50 mM; conditions: protein: recombinant; tags: N-terminal 6-His; copies: 1;1; label: 5'-32P primer; template 5' overhang 24 nt, other end blunt
[13] = biological target: T1, HIV-1 reverse transcriptase p66/p51, …; test: EMSA; dCTP titrated (ligand Kd); Bmax 50.0%; DEC binding buffer not in the material; 6% non-denaturing PAGE; DEC defined as resistant to excess competitor template; primer/template annealed 1:1.3 in 50 mM; conditions: protein: recombinant; tags: N-terminal 6-His; copies: 1;1; label: 5'-32P primer; template 5' overhang 24 nt, other end blunt
[14] = biological target: T1, HIV-1 reverse transcriptase p66/p51, …; test: EMSA; FTC-TP titrated (ligand Kd); Bmax 50.0%; DEC binding buffer not in the material; 6% non-denaturing PAGE; DEC defined as resistant to excess competitor template; primer/template annealed 1:1.3 in 50 mM; conditions: protein: recombinant; tags: N-terminal 6-His; copies: 1;1; label: 5'-32P primer; template 5' overhang 24 nt, other end blunt

B1: D26/D50, ddAMP-terminated (dsDNA)
DNA 1: CTGAGACAACATCTGCTGAGGTAGGA
DNA 2: TGTCGTGTGGTGTCGTGTGGTATGTCCTACCTCAGCAGATGTTGTCTCAG
modifications: 3'-terminal A of primer is ddAMP
apparent K (half saturation) [1]: 2420 ± 1100 nM
apparent K (half saturation) [2]: 8.1 ± 2.1 µM
apparent K (half saturation) [3]: 86.8 ± 0.2 µM

B2: D20/D36C, FTC-MP-terminated (dsDNA)
DNA 1: GTCCCTGTTCGGGCGCCACC
DNA 2: TCTCTAATGGTGGCGCCCGAACAGGGACCTGAAAGC
modifications: 3'-terminal C of primer is emtricitabine-MP
apparent K (half saturation) [4]: 1540 ± 330 nM

B3: D20/D36C, ddCMP-terminated (dsDNA)
DNA 1: GTCCCTGTTCGGGCGCCACC
DNA 2: TCTCTAATGGTGGCGCCCGAACAGGGACCTGAAAGC
modifications: 3'-terminal C of primer is ddCMP
apparent K (half saturation) [5]: 1030 ± 250 nM
apparent K (half saturation) [6]: 16.9 ± 8.5 µM
apparent K (half saturation) [7]: 445 ± 114 µM

B4: D27/D50, FTC-MP-terminated (dsDNA)
DNA 1: CTGAGACAACATCTGCTGAGGTAGGAC
DNA 2: TGTCGTGTGGTGTCGTGTGGTATGTCCTACCTCAGCAGATGTTGTCTCAG
modifications: 3'-terminal C of primer is emtricitabine-MP
apparent K (half saturation) [8]: 1260 ± 240 nM

B5: D27/D50, ddCMP-terminated (dsDNA)
DNA 1: CTGAGACAACATCTGCTGAGGTAGGAC
DNA 2: TGTCGTGTGGTGTCGTGTGGTATGTCCTACCTCAGCAGATGTTGTCTCAG
modifications: 3'-terminal C of primer is ddCMP
apparent K (half saturation) [9]: 6.5 ± 2.6 µM
apparent K (half saturation) [10]: 110 ± 60 nM
apparent K (half saturation) [11]: 140 ± 19 µM

B6: D26/D50, TFV-terminated (dsDNA)
DNA 1: CTGAGACAACATCTGCTGAGGTAGGA
DNA 2: TGTCGTGTGGTGTCGTGTGGTATGTCCTACCTCAGCAGATGTTGTCTCAG
modifications: 3'-terminal A of primer is tenofovir (chain terminator)
apparent K (half saturation) [12]: 1220 ± 280 nM
apparent K (half saturation) [13]: 179 ± 33 µM
apparent K (half saturation) [14]: 46.5 ± 7.8 µM
